± gives the half width of the 95% confidence interval.

A short description of series [1]: folding stability dG unfold (combined trypsin and chymotrypsin); higher = more stable. An outline of the steps: (§1)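 Digests were run with trypsin and chymotrypsin at 11 concentrations in threefold dilutions, plus a no-protease condition, on designed mini-proteins in a PA-tagged cDNA display construct. The mini-proteins were under 80 residues, had no cysteine, and were kept only when AlphaFold2 dimer inter-PAE was above 15. After sequencing, Bayesian fitting of the counts gave K50, from which unfolding free energy was derived against a sequence-predicted unfolded-state K50 and a shared folded-state K50, per protease or combined.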

Series [2] in a line: folding stability dG unfold from chymotrypsin proteolysis; higher = more stable. An outline of the steps: as §1
Series [3] in a line: folding stability dG unfold from trypsin proteolysis; higher = more stable. An outline of the steps: as §1

For “SAGGSAGGSKFEITEVSVELVEVDGKLYLKVSMTIKNEDGSTYKISLVYDLENNELYLSIEKVSAGGSAGGS [r12_1035_TrROS_Hall]”, the entries for the “folding stability dG unfold” value in series [1], in series [2] and in series [3] were 5.87 ± 0.37 kcal/mol, 5.7 ± 0.16 kcal/mol and 4.12 ± 0.43 kcal/mol, respectively.

“SAGGSAGGSKFKIVSIEVTVETNEDGSKTLTVKIRLEDGSEITITVPENATLEEVLKLLKELASAGGSAGGS [r12_1047_TrROS_Hall]”: the “folding stability dG unfold” value in series [1] was found to be 4.31 ± 0.11 kcal/mol; in series [2], 4.42 ± 0.051 kcal/mol; in series [3], 3.88 ± 0.2 kcal/mol.

Regarding “SAGGSAGGSKGPMITITLFILVRPDDGKYYATVIEMYIYPNGGIDIEMEMIPADDIPPGDIVISAGGSAGGS [r12_38_TrROS]”, the “folding stability dG unfold” value worked out at 4.55 ± 0.22 kcal/mol in series [1], 4.74 ± 0.15 kcal/mol in series [2] and 2.94 ± 0.17 kcal/mol in series [3].

Consider “SAGGSAGGSKIEFTVPDNDELIEYIRKWFQDNGGQIKNIKIEPTPPNQVKVEIEINPGDPWFQSAGGSAGGS [r12_647_TrROS]”, for which the results for the “folding stability dG unfold” value in series [1], in series [2] and in series [3] were 2.2 ± 0.14 kcal/mol, 2.36 ± 0.077 kcal/mol and 1.74 ± 0.041 kcal/mol, respectively.

Turning to “SAGGSAGGSKIEITVKTKEELLEAIRKLAEEKGYEIVSIKIEKLPDGTYKVTIEIRKNDPLLKSAGGSAGGS [r12_647_TrROS_Hall]”, the “folding stability dG unfold” value in series [1] was 2.38 ± 0.12 kcal/mol; in series [2] it was 2.79 ± 0.076 kcal/mol; in series [3], 1.35 ± 0.083 kcal/mol.

In the case of “SAGGSAGGSKIKPGEKVEIKLKIKVKDKNGKEKEIELTFSKDMTVEEIKKLLKELEKKGFEIESAGGSAGGS [r20_27_TrROS_Hall]”, the “folding stability dG unfold” value amounted to 2.72 ± 0.33 kcal/mol in series [1], 3.23 ± 0.24 kcal/mol in series [2] and 1.56 ± 0.12 kcal/mol in series [3].

On to “SAGGSAGGSKIPPGEPVTLPIFFIIWDPENGRPYAMRMEITFDAPDGNITKMNEEVIPPGQPFSAGGSAGGS [r12_868_TrROS]”, for which the “folding stability dG unfold” value in series [1] amounted to 1.54 ± 0.14 kcal/mol; in series [2], 1.49 ± 0.17 kcal/mol; in series [3], 1.5 ± 0.056 kcal/mol.

On to “SAGGSAGGSKITVERNEDGELFVRITFKDGKTITIKAKSVEELKEKLKELGFDVKVEVVERKPSAGGSAGGS [r20_124_TrROS_Hall]”, for which the results for the “folding stability dG unfold” value in series [1], in series [2] and in series [3] were 4.18 ± 0.087 kcal/mol, 4.58 ± 0.071 kcal/mol and 2.74 ± 0.084 kcal/mol, respectively.

For the sequence “SAGGSAGGSKITVHRNPPGYYVIRIHGPGPITIMIPPKDADELANKLKDLGFDMKVEVYPLDDSAGGSAGGS [r20_124_TrROS]”, the “folding stability dG unfold” value in series [1] turned out to be 1.1 ± 0.11 kcal/mol; in series [2], 1.05 ± 0.1 kcal/mol; in series [3] it was 1.23 ± 0.028 kcal/mol.

Take “SAGGSAGGSKKDPEDNPEQAKPPIPPIRVEIYPPDGQPETFEFHSLEEITEWIQERGYTVKIESAGGSAGGS [r12_244_TrROS]”: the “folding stability dG unfold” value in series [1] was 0.974 ± 0.065 kcal/mol; in series [2], 1.12 ± 0.051 kcal/mol; in series [3], 0.668 ± 0.022 kcal/mol.

For “SAGGSAGGSKKIKITVVVPKEEAEKLLKELEKAGYKIVSVEKKEIPENELVVIEIVIEKPEELSAGGSAGGS [r12_445_TrROS_Hall]”, the results for the “folding stability dG unfold” value in series [1], in series [2] and in series [3] were 3.65 ± 0.31 kcal/mol, 4.13 ± 0.24 kcal/mol and 3.09 ± 0.14 kcal/mol, respectively.

Consider “SAGGSAGGSKKKIKVIIEVEVNGKKYKIEVEAETEEEAKKKAEEAIKELKKKFPNVKIKKIKPSAGGSAGGS [r12_230_TrROS_Hall]”, for which the figures for the “folding stability dG unfold” value in series [1], in series [2] and in series [3] were 3.51 ± 0.26 kcal/mol, 4.08 ± 0.25 kcal/mol and 2.38 ± 0.13 kcal/mol, respectively.

For the sequence “SAGGSAGGSKKKKKKKKKIKVLIRNKKTGKWFEAEAEVVDGELYIKVNGKIYKIKGPVEIELVSAGGSAGGS [r12_683_TrROS_Hall]”, the figures for the “folding stability dG unfold” value in series [1], in series [2] and in series [3] were 3.3 ± 0.048 kcal/mol, 3.686 ± 0.019 kcal/mol and 2.38 ± 0.043 kcal/mol, respectively.

Consider “SAGGSAGGSKKKKVIEIKISEEELKKLGLTKEEIAKKLAEKFPNIKKNVRIEKNKDGTLKIYVSAGGSAGGS [r12_50_TrROS_Hall]”, for which the “folding stability dG unfold” value came to 1.18 ± 0.31 kcal/mol in series [1], 1.27 ± 0.092 kcal/mol in series [2] and 1.22 ± 0.072 kcal/mol in series [3].

With “SAGGSAGGSKKKLKLVIKLKKGEKAPTAEELKKKLEELGFEIKDIKVVEKDGELYVVLEIELKSAGGSAGGS [r12_1052_TrROS_Hall]”, the “folding stability dG unfold” value is 3.24 ± 0.32 kcal/mol in series [1], 3.4 ± 0.14 kcal/mol in series [2] and 2.67 ± 0.35 kcal/mol in series [3].

“SAGGSAGGSKKKNKPAPPVLVVKVEIVKIELSDEELEAIKKNKEKIKEIYLIKIEVTLVEPEESAGGSAGGS [r12_196_TrROS_Hall]”: the “folding stability dG unfold” value in series [1] is 1.94 ± 0.14 kcal/mol; in series [2], 2.18 ± 0.062 kcal/mol; in series [3], 1.17 ± 0.11 kcal/mol.

Take “SAGGSAGGSKKKTVEEILKELKKKKNKIIKIKYKDGSTYYINIKTGKIIKLKNIKNVKIEILPSAGGSAGGS [r20_44_TrROS_Hall]”: the “folding stability dG unfold” value worked out at 3.55 ± 0.32 kcal/mol in series [1], 4.44 ± 0.1 kcal/mol in series [2] and 2.73 ± 0.14 kcal/mol in series [3].

As to “SAGGSAGGSKKKVTINIVLTVKPGETLTLTVEITIDGKKYKVTKTLTYDPKTNKLVLTATVEPSAGGSAGGS [r12_136_TrROS_Hall]”, the figures for the “folding stability dG unfold” value in series [1], in series [2] and in series [3] were 5.03 ± 0.29 kcal/mol, 5.03 ± 0.24 kcal/mol and 3.78 ± 0.32 kcal/mol, respectively.

On to “SAGGSAGGSKKKYTVEELLKKLKPGDIALVKINGKWREVSVEELKKLPPGAEVEVEVFKLKPPSAGGSAGGS [r12_501_TrROS_Hall]”, for which the “folding stability dG unfold” value stood at 3.34 ± 0.16 kcal/mol in series [1], 3.51 ± 0.072 kcal/mol in series [2] and 2.84 ± 0.11 kcal/mol in series [3].

As to “SAGGSAGGSKKPKITITIEILVKNEDGKLYLFRIEIEINENGEISIKMEIFELKDIKPGDILLSAGGSAGGS [r12_38_TrROS_Hall]”, the “folding stability dG unfold” value was determined as 3.56 ± 0.38 kcal/mol in series [1], 3.94 ± 0.13 kcal/mol in series [2] and 2.63 ± 0.19 kcal/mol in series [3].

With “SAGGSAGGSKKPPIYKIEIEIDGKKLTIEAKSKEEALKALKEELKKKYPNLKITKIKIEKVKPSAGGSAGGS [r12_429_TrROS_Hall]”, the figures for the “folding stability dG unfold” value in series [1], in series [2] and in series [3] were 2.14 ± 0.15 kcal/mol, 2.4 ± 0.14 kcal/mol and 1.52 ± 0.088 kcal/mol, respectively.

For “SAGGSAGGSKKPVLAKIAILNSGSPEVAEELAKRLAAELGLSPDEVKVELHVIPVTAPGELLFSAGGSAGGS [r12_1066_TrMRF]”, the results for the “folding stability dG unfold” value in series [1], in series [2] and in series [3] were 0.416 ± 0.043 kcal/mol, 0.328 ± 0.063 kcal/mol and 0.465 ± 0.02 kcal/mol, respectively.

As to “SAGGSAGGSKKVEVEILLLLPESTTEEEAKALAEELAEKIKEATPADDVEVKVVILKVPKNALSAGGSAGGS [r12_522_TrMRF]”, the “folding stability dG unfold” value in series [1] was 1.92 ± 0.21 kcal/mol; in series [2] it was 1.89 ± 0.048 kcal/mol; in series [3], 2 ± 0.12 kcal/mol.

Take “SAGGSAGGSKKVKEVTITVKNKDGKTVKITKIYKKKDGSKYVLIKDKKTKKTYKISLEDLKKLSAGGSAGGS [r12_488_TrROS_Hall]”: the “folding stability dG unfold” value in series [1] amounted to 1.8 ± 0.14 kcal/mol; in series [2] it was 2.29 ± 0.076 kcal/mol; in series [3], 1.11 ± 0.05 kcal/mol.

Take “SAGGSAGGSKKVKIIEIDLKDMSPEEILELIKKEKVDAIIIKSDTPEAKRLAEKLKEAGFKVISAGGSAGGS [r12_610_TrROS_Hall]”: the “folding stability dG unfold” value in series [1] amounted to 2.05 ± 0.059 kcal/mol; in series [2], 2.36 ± 0.055 kcal/mol; in series [3], 1.46 ± 0.043 kcal/mol.

On to “SAGGSAGGSKLEEILKKLPPNAKITIEKDEETNVYTITITNKNGEKYTFTFSKEEVKKLLEKLSAGGSAGGS [r12_174_TrROS_Hall]”, for which the “folding stability dG unfold” value worked out at 4.62 ± 0.22 kcal/mol in series [1], 4.76 ± 0.24 kcal/mol in series [2] and 3.13 ± 0.19 kcal/mol in series [3].

On to “SAGGSAGGSKLGVFEVGGKRYAVKVTDKNGKELTLAIPPELLKKLPKNLKVEVKEVKPGEPIPSAGGSAGGS [r12_419_TrMRF]”, for which the “folding stability dG unfold” value was found to be 0.635 ± 0.15 kcal/mol in series [1], 0.738 ± 0.23 kcal/mol in series [2] and 0.218 ± 0.16 kcal/mol in series [3].

“SAGGSAGGSKLKIPIIRKFKPDEPLPTAEDVKAILEELGLDIKEVKVTYFPEYGYAIAEVEVSSAGGSAGGS [r12_1052_TrMRF]”: the results for the “folding stability dG unfold” value in series [1], in series [2] and in series [3] were 1.41 ± 0.067 kcal/mol, 1.24 ± 0.039 kcal/mol and 1.57 ± 0.033 kcal/mol, respectively.

Consider “SAGGSAGGSKMLLVKVYVPEFDTVVVFEAPRDITIEEIEERLREAGFSVARIEVVEFDLPEGGSAGGSAGGS [r12_955_TrMRF]”, for which the “folding stability dG unfold” value in series [1] was found to be 3.55 ± 0.071 kcal/mol; in series [2] it was 3.766 ± 0.022 kcal/mol; in series [3], 3.02 ± 0.049 kcal/mol.

With “SAGGSAGGSKMRERTITFPNAKITIWYHPDGNVRMEVMNPGNGKPKREIWMKPGDIEEILKKFSAGGSAGGS [r20_129_TrROS]”, the “folding stability dG unfold” value in series [1] came out at 2.32 ± 0.049 kcal/mol; in series [2], 2.58 ± 0.038 kcal/mol; in series [3], 1.62 ± 0.043 kcal/mol.

Take “SAGGSAGGSKNGEPPPVPTITMRFKDPDKIRKLNKKAGLPIEHDPGNGYITFPYRQIDKILKASAGGSAGGS [r12_325_TrROS]”: the “folding stability dG unfold” value in series [1] is greater than 6 kcal/mol; in series [2], 5.86 ± 0.32 kcal/mol; in series [3] it was 3.98 ± 0.8 kcal/mol.

For “SAGGSAGGSKNMVMVEIPFEHKVKQPDPPDGKWRQHEHKPTIPYMIPPEDAEELLNSPALKKISAGGSAGGS [r12_1015_TrROS]”, the “folding stability dG unfold” value was determined as 0.043 ± 0.19 kcal/mol in series [1], 0.0107 ± 0.21 kcal/mol in series [2] and 0.138 ± 0.2 kcal/mol in series [3].

On to “SAGGSAGGSKPDEVEVIEIKVPPGARVRLPDGSVVEIKPGDPNTTYRIVVDKKNKKITIEPLDSAGGSAGGS [r12_338_TrROS_Hall]”, for which the “folding stability dG unfold” value in series [1] came to 1.46 ± 0.27 kcal/mol; in series [2], 1.43 ± 0.12 kcal/mol; in series [3] it was 1.38 ± 0.12 kcal/mol.

For the sequence “SAGGSAGGSKPGKPREIMIPFPDNWFMSIRVWPGRIEIENPDNGKEFEIPIGAPIEIELFPLDSAGGSAGGS [r12_227_TrROS]”, the “folding stability dG unfold” value in series [1] is 1.89 ± 0.17 kcal/mol; in series [2], 1.81 ± 0.095 kcal/mol; in series [3], 1.98 ± 0.035 kcal/mol.

Take “SAGGSAGGSKPIKTKATIPLPNGKTITADVEIVVLPDGNILLRVPSGKVILVPPNYPVTFEDASAGGSAGGS [r20_227_TrMRF]”: the results for the “folding stability dG unfold” value in series [1], in series [2] and in series [3] were 1.67 ± 0.036 kcal/mol, 1.62 ± 0.021 kcal/mol and 1.71 ± 0.025 kcal/mol, respectively.

The record behind these values is the supplement of paper PMC12764529.
